Common to all, as to conditions: both partners purified
In assay [1] the target is T1, proMMP-9 purified from THP-1 cells (human (endogenous in THP-1), UniProt P14780 20-707).
T1 construct: matrix metalloprotease-9 proenzyme, human; pre domain cleaved off, the mature proenzyme is 20-707; the preparation holds a small amount of TIMP-1; monomer and reduction-sensitive homomultimer; also called pMMP-9; promatrix metalloprotease-9; source: purified from conditioned medium of PMA-stimulated THP-1 cells (Q-Sepharose pass-through, gelatin-Sepharose)
The experiment in a line: peptide or protein array; 20-mer walk of the SG core protein on cellulose, two-residue shift; 8.8 ul of 11.2 ug/mL proMMP-9 in 10 mL blocking buffer, 1-4 h, room temperature; antibody against MMP-9.
Target sequence in this assay (P14780 20-707): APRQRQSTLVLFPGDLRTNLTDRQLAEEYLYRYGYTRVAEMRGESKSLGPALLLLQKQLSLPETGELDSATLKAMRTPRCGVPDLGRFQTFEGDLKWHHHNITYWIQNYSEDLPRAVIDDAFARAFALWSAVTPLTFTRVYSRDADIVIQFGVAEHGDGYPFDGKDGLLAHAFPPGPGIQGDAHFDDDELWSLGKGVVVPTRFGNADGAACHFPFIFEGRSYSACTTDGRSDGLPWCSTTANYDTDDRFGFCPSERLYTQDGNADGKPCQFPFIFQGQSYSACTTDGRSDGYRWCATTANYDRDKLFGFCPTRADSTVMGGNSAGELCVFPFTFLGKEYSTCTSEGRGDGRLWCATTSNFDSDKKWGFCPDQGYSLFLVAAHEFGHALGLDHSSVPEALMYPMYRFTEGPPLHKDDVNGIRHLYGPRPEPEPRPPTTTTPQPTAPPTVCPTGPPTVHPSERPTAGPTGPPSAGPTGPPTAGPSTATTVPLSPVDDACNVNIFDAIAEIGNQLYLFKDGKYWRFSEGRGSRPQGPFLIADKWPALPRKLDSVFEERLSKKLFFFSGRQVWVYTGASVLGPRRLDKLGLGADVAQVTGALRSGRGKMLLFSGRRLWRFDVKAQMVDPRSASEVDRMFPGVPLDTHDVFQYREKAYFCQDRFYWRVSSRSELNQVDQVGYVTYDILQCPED

In assay [2] the target is T2, recombinant full-length proMMP-9 (human, UniProt P14780 20-707).
T2 construct: matrix metalloprotease-9 proenzyme, human, full-length; pre domain cleaved off, the mature proenzyme is 20-707; also called rpMMP-9; source: Sf9, baculovirus, purified (gelatin-Sepharose)
The description is as above.

Assay [3] has as its target T3, recombinant proMMP-9 lacking the HPX domain (human, UniProt P14780 20-515).
T3 construct: MMP-9 proenzyme, human; stop codon behind the codon for A515; the mature proenzyme starts at 20; also called rpMMP-9ΔHPX; proMMP-9ΔHPX; source: Sf9, baculovirus, purified (gelatin-Sepharose)
The assay is described as above.

Assay [4] deals with T4, recombinant human His-tagged serglycin (human, UniProt P10124 28-158).
T4 construct: serglycin core protein, human, the tag stands instead of the signal peptide; no GAG chains; numbers count on: the mature protein (1-131); also called Ht-SG; SG core protein; source: bought: ProSpec (produced in Escherichia coli)
T4 sequence (looked up): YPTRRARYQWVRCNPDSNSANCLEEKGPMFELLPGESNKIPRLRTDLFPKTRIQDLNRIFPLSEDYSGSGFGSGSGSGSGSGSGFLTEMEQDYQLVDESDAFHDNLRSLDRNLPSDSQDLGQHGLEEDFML
The experiment in a line: peptide or protein array; 20-mer walks of the MMP-9 FnII module and HPX domain on cellulose, two-residue shift; 10 uL of 1 ng/uL Ht-SG in 10 mL blocking buffer, 1-4 h, room temperature; antibodies against SG.

Assay [5] deals with T1, proMMP-9 purified from THP-1 cells. The assay is described as follows: peptide or protein array; 20-mer walk of the SG core protein on cellulose, two-residue shift; 8.8 ul of 11.2 ug/mL proMMP-9 in 10 mL blocking buffer, 1-4 h, room temperature; antibody against MMP-9. This is another data set of the same source.

T3 sequence (P14780 20-515): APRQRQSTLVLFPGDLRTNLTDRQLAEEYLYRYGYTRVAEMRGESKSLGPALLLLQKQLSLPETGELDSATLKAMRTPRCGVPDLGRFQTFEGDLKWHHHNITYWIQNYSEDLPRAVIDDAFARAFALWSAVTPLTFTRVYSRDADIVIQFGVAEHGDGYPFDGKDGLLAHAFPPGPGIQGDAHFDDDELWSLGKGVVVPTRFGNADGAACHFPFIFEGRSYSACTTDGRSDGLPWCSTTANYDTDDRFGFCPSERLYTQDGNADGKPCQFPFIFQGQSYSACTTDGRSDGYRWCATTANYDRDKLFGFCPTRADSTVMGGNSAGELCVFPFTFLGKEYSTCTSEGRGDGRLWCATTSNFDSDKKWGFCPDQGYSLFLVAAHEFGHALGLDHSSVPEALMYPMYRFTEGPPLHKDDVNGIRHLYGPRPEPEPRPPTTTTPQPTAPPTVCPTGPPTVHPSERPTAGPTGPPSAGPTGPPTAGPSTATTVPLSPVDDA

B1: SG peptide 15 (peptide, UniProt P10124 56-75, looked up)
peptide: MFELLPGESNKIPRLRTDLF
notes: serglycin core protein, spot 15 of the 20-mer walk with two-residue shift; numbers count on: the mature protein (1-131); source: synthetic peptide on a cellulose membrane
Consider B1, for which the binding result in assay [1], in assay [2] and in assay [3] was “binds” throughout.

B2: SG peptide 24 (peptide, UniProt P10124 74-93, looked up)
peptide: LFPKTRIQDLNRIFPLSEDY
notes: serglycin core protein, spot 24 of the 20-mer walk with two-residue shift; numbers count on: the mature protein (1-131); source: synthetic peptide on a cellulose membrane
B2: the binding result in assay [1], in assay [2] and in assay [3] was “binds” each time.

B3: FnII peptide 17 (peptide, UniProt P14780 257-276, looked up)
peptide: STTANYDTDDRFGFCPSERL
notes: MMP-9 FnII module (A225-D390), spot 17 of the 20-mer walk with two-residue shift; source: synthetic peptide on a cellulose membrane
Turning to B3, the binding result in assay [4] is reported as “binds”.

B4: SG peptide 52 (peptide, UniProt P10124 130-149, looked up)
peptide: HDNLRSLDRNLPSDSQDLGQ
notes: serglycin core protein, spot 52 of the 20-mer walk with two-residue shift; numbers count on: the mature protein (1-131); source: synthetic peptide on a cellulose membrane
On to B4, for which, in assay [5], the binding result is “binds”.

B5: HPX peptide 76 (peptide, UniProt P14780 671-690, looked up)
peptide: AYFCQDRFYWRVSSRSELNQ
notes: MMP-9 HPX domain (F521-D707), spot 76 of the 20-mer walk with two-residue shift; source: synthetic peptide on a cellulose membrane
Turning to B5, in assay [4], the binding result is “binds”.

B6: SG peptide 48 (peptide, UniProt P10124 122-141, looked up)
peptide: LVDESDAFHDNLRSLDRNLP
notes: serglycin core protein, spot 48 of the 20-mer walk with two-residue shift; numbers count on: the mature protein (1-131); source: synthetic peptide on a cellulose membrane
For the molecule B6, the binding result in assay [1], in assay [2] and in assay [3] was “binds” in each case.

B7: FnII peptide 13 (peptide, UniProt P14780 249-268, looked up)
peptide: RSDGLPWCSTTANYDTDDRF
notes: MMP-9 FnII module (A225-D390), spot 13 of the 20-mer walk with two-residue shift; source: synthetic peptide on a cellulose membrane
Regarding B7, in assay [4], the binding result is “binds”.

B8: FnII peptide 15 (peptide, UniProt P14780 253-272, looked up)
peptide: LPWCSTTANYDTDDRFGFCP
notes: MMP-9 FnII module (A225-D390), spot 15 of the 20-mer walk with two-residue shift; source: synthetic peptide on a cellulose membrane
With B8, the binding result in assay [4] is on record as “binds”.

B9: FnII peptide 64 (peptide, UniProt P14780 351-370, looked up)
peptide: FTFLGKEYSTCTSEGRGDGR
notes: MMP-9 FnII module (A225-D390), spot 64 of the 20-mer walk with two-residue shift; source: synthetic peptide on a cellulose membrane
Regarding B9, the binding result in assay [4] is on record as “binds”.

B10: FnII peptide 18 (peptide, UniProt P14780 259-278, looked up)
peptide: TANYDTDDRFGFCPSERLYT
notes: MMP-9 FnII module (A225-D390), spot 18 of the 20-mer walk with two-residue shift; source: synthetic peptide on a cellulose membrane
For the molecule B10, in assay [4], the binding result is “binds”.

B11: SG peptide 26 (peptide, UniProt P10124 78-97, looked up)
peptide: TRIQDLNRIFPLSEDYSGSG
notes: serglycin core protein, spot 26 of the 20-mer walk with two-residue shift; numbers count on: the mature protein (1-131); source: synthetic peptide on a cellulose membrane
With B11, the binding result in assay [1], in assay [2] and in assay [3] was “binds” in each case.

B12: HPX peptide 69 (peptide, UniProt P14780 657-676, looked up)
peptide: VPLDTHDVFQYREKAYFCQD
notes: MMP-9 HPX domain (F521-D707), spot 69 of the 20-mer walk with two-residue shift; source: synthetic peptide on a cellulose membrane
Turning to B12, the binding result in assay [4] was “binds”.

B13: FnII peptide 65 (peptide, UniProt P14780 353-372, looked up)
peptide: FLGKEYSTCTSEGRGDGRLW
notes: MMP-9 FnII module (A225-D390), spot 65 of the 20-mer walk with two-residue shift; source: synthetic peptide on a cellulose membrane
With B13, the binding result in assay [4] is “binds”.

B14: SG peptide 47 (peptide, UniProt P10124 120-139, looked up)
peptide: YQLVDESDAFHDNLRSLDRN
notes: serglycin core protein, spot 47 of the 20-mer walk with two-residue shift; numbers count on: the mature protein (1-131); source: synthetic peptide on a cellulose membrane
Consider B14, for which the binding result in assay [1], in assay [2] and in assay [3] was “binds” in each case.

B15: FnII peptide 19 (peptide, UniProt P14780 261-280, looked up)
peptide: NYDTDDRFGFCPSERLYTQD
notes: MMP-9 FnII module (A225-D390), spot 19 of the 20-mer walk with two-residue shift; source: synthetic peptide on a cellulose membrane
For B15, the binding result in assay [4] was “binds”.

B16: HPX peptide 12 (peptide, UniProt P14780 543-562, looked up)
peptide: SEGRGSRPQGPFLIADKWPA
notes: MMP-9 HPX domain (F521-D707), spot 12 of the 20-mer walk with two-residue shift; source: synthetic peptide on a cellulose membrane
As for B16, in assay [4], the binding result is on record as “binds”.

B17: HPX peptide 85 (peptide, UniProt P14780 688-707, looked up)
peptide: LNQVDQVGYVTYDILQCPED
notes: MMP-9 HPX domain (F521-D707), last spot (85) of the 20-mer walk; source: synthetic peptide on a cellulose membrane
For the molecule B17, the binding result in assay [4] is “binds”.

B18: HPX peptide 10 (peptide, UniProt P14780 539-558, looked up)
peptide: YWRFSEGRGSRPQGPFLIAD
notes: MMP-9 HPX domain (F521-D707), spot 10 of the 20-mer walk with two-residue shift; source: synthetic peptide on a cellulose membrane
Consider B18, for which, in assay [4], the binding result is reported as “binds”.

B19: SG peptide 50 (peptide, UniProt P10124 126-145, looked up)
peptide: SDAFHDNLRSLDRNLPSDSQ
notes: serglycin core protein, spot 50 of the 20-mer walk with two-residue shift; numbers count on: the mature protein (1-131); source: synthetic peptide on a cellulose membrane
B19: the binding result in assay [5] is listed as “binds”.

B20: HPX peptide 19 (peptide, UniProt P14780 557-576, looked up)
peptide: ADKWPALPRKLDSVFEERLS
notes: MMP-9 HPX domain (F521-D707), spot 19 of the 20-mer walk with two-residue shift; source: synthetic peptide on a cellulose membrane
With B20, the binding result in assay [4] is listed as “binds”.

B21: SG peptide 27 (peptide, UniProt P10124 80-99, looked up)
peptide: IQDLNRIFPLSEDYSGSGFG
notes: serglycin core protein, spot 27 of the 20-mer walk with two-residue shift; numbers count on: the mature protein (1-131); source: synthetic peptide on a cellulose membrane
As for B21, the binding result in assay [1], in assay [2] and in assay [3] was “binds” throughout.

B22: HPX peptide 56 (peptide, UniProt P14780 631-650, looked up)
peptide: RLWRFDVKAQMVDPRSASEV
notes: MMP-9 HPX domain (F521-D707), spot 56 of the 20-mer walk with two-residue shift; source: synthetic peptide on a cellulose membrane
For B22, in assay [4], the binding result is on record as “binds”.

Values taken from PMC7352350, “Molecular Interactions Stabilizing the Promatrix Metalloprotease-9·Serglycin Heteromer” (International Journal of Molecular Sciences, 2020).
